In article PMC12908882 (Molecular cancer therapeutics, 2026):

Assays:
[1] = biological target: Human L1CAM expressed on transfected HEK293T cells (HEK293T-L1CAM cells) (Homo sapiens, UniProt P32004); assay: flow cytometry on cells
[2] = biological target: Human L1CAM Ig-like domains, residues 21-605, C-terminal 6x His tag (Homo sapiens, UniProt P32004); assay: BLI
[3] = biological target: His-tagged, monomeric mouse L1CAM protein (Mus musculus, UniProt P11627); assay: BLI
[4] = biological target: Extracellular domain of human L1CAM fused to a poly-histidine tag (L1CAM-His) (Homo sapiens, UniProt P32004); assay: BLI
[5] = biological target: Human L1CAM fibronectin-like type III (FNIII) repeats, residues 606-1116, C-terminal 6x His tag (Homo sapiens, UniProt P32004); assay: BLI

Measured: binding result

Chain of Human L1CAM expressed on transfected HEK293T cells (HEK293T-L1CAM cells) (P32004 20-1257): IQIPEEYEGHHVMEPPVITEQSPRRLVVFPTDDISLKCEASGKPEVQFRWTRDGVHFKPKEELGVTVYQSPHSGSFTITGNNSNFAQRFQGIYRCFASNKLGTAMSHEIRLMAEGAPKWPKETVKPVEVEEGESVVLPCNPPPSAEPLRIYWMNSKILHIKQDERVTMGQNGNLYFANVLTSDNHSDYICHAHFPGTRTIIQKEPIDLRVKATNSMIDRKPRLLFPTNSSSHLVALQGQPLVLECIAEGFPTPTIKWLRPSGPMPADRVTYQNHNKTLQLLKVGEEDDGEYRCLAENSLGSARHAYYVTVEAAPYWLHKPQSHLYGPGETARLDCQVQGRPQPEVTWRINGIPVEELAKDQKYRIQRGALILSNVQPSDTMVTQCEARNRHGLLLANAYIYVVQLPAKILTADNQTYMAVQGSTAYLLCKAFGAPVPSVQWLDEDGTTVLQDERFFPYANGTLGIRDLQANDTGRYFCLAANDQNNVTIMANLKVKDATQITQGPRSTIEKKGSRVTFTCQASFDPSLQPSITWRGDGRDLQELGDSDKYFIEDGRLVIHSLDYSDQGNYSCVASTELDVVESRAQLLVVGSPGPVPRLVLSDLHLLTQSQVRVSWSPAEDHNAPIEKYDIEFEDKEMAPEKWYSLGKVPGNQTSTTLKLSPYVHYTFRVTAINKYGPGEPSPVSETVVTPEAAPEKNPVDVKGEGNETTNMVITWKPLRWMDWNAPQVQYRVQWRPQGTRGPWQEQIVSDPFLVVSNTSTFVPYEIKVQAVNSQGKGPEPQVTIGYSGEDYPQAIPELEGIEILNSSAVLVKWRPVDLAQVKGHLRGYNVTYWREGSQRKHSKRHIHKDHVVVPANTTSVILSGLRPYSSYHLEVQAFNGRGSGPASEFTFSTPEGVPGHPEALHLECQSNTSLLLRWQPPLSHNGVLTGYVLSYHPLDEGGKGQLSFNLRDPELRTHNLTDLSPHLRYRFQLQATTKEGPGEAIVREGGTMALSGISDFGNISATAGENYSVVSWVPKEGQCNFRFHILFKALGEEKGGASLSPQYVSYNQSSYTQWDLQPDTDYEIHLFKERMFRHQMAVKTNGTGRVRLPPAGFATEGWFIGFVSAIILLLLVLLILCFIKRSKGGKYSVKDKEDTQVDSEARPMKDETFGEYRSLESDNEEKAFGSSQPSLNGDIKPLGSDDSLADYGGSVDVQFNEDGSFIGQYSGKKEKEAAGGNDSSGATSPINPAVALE
Chain of Extracellular domain of human L1CAM fused to a poly-histidine tag (L1CAM-His) (P32004 20-1120): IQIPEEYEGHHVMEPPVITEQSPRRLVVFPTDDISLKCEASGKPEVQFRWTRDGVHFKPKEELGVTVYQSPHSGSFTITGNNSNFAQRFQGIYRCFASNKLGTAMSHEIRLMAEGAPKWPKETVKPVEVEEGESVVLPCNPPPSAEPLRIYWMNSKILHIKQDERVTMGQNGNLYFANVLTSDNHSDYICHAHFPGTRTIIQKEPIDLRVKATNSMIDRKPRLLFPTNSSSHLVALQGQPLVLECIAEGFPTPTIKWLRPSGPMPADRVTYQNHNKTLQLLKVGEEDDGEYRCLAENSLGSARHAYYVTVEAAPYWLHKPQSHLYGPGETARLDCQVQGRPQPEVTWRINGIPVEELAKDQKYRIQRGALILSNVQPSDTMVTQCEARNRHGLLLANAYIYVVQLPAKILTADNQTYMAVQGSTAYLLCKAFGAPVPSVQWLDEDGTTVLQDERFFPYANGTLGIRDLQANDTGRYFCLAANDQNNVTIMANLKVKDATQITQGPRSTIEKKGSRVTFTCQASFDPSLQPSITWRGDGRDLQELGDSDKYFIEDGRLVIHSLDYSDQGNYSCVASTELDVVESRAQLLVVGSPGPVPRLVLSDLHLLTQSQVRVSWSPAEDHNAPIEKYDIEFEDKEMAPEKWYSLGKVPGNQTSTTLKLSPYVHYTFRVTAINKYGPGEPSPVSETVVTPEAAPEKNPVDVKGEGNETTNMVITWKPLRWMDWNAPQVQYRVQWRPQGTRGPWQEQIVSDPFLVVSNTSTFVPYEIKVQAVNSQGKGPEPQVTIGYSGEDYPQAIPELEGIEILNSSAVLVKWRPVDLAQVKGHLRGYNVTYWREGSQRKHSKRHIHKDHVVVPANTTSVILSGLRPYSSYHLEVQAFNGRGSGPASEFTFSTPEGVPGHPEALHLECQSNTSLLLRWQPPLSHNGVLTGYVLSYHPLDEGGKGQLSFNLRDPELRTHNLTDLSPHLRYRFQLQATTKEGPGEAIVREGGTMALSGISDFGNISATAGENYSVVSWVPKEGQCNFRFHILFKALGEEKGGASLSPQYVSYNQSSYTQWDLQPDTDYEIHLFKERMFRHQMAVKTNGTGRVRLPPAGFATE
Chain of Human L1CAM Ig-like domains, residues 21-605, C-terminal 6x His tag (P32004 21-605): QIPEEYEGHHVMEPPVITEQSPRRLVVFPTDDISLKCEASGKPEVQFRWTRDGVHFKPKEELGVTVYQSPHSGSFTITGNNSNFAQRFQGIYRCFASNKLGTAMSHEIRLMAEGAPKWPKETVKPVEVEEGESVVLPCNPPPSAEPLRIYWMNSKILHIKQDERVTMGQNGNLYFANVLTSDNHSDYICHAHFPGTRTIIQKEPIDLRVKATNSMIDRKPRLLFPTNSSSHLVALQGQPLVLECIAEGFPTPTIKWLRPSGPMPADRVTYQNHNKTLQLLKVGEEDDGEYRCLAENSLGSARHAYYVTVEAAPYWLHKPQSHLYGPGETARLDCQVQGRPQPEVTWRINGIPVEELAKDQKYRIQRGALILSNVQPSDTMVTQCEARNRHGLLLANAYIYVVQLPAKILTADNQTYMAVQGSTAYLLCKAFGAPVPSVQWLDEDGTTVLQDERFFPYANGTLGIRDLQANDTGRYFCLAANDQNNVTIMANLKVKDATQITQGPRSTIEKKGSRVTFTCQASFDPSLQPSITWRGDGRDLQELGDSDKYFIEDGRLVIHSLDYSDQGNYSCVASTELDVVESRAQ
Chain of Human L1CAM fibronectin-like type III (FNIII) repeats, residues 606-1116, C-terminal 6x His tag (P32004 606-1116): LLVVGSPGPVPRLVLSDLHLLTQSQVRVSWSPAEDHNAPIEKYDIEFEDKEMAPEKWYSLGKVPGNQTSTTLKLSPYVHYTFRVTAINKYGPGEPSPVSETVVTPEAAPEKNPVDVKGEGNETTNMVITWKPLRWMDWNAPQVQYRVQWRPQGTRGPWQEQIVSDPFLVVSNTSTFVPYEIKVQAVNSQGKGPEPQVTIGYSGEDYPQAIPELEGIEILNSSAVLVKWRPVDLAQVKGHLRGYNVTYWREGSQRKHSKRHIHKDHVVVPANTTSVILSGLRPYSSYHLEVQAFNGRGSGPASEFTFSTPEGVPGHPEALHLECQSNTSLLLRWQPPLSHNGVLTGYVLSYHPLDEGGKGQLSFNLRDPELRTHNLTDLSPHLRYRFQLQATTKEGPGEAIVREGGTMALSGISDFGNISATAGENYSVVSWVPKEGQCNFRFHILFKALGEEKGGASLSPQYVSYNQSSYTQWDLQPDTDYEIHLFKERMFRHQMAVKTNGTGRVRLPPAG
Chain of His-tagged, monomeric mouse L1CAM protein (P11627 whole entry, looked up, the tested form may be a part): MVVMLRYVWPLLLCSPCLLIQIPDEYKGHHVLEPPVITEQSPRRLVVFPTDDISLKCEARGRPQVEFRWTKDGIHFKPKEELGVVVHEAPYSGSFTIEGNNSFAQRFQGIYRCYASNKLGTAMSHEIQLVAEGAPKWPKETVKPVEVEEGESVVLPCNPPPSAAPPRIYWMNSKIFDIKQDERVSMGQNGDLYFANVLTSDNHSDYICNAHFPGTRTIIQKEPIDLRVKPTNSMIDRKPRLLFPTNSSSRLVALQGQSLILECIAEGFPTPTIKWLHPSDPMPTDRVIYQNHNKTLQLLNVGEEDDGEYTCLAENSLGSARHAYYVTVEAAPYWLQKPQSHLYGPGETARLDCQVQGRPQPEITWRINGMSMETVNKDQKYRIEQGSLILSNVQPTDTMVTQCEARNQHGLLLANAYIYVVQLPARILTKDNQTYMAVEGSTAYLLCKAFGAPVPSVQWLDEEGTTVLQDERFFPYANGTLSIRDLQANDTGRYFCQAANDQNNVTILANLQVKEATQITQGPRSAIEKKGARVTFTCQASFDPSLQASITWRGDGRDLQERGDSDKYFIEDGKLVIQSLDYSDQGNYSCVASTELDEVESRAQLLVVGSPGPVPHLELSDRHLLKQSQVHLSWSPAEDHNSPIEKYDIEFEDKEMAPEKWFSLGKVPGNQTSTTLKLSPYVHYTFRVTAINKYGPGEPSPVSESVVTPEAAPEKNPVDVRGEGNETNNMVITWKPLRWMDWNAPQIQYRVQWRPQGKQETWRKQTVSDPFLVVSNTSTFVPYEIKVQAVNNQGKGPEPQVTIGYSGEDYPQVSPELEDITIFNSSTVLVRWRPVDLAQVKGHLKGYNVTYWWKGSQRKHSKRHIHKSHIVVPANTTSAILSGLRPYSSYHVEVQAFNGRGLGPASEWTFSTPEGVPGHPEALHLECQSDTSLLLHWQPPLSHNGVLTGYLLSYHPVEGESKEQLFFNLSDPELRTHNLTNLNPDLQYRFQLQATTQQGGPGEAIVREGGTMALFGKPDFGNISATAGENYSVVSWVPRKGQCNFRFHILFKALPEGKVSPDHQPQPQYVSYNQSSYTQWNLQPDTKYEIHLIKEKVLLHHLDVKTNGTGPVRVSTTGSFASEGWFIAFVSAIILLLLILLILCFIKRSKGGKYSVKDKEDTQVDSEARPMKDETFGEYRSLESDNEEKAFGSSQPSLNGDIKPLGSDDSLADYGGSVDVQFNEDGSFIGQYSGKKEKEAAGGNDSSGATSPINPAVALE

B1: 14A10 monoclonal antibody to human L1CAM (antibody, V domains shown)
VH: EVQMVESGGGLVQPGGSLRLSCAAPGFIFSSYNMNWVRQAPGKGLEWVSYISSSSSTTYYADSVKGRFTISRDNAKNSLYLQMNSLRDEDTAVYYCASLYSGYDYYYYYGMDVWGQGTTVTVSS
VL: DIVMTQTPLSSPVSLGQPASISCRSSQSLVHSDGNTYLSWLQQRPGQPPRVLIYKISKRFSGVPDRFSGSGAGTDFTLKISRVEAEDVGVYYCMQATQFPFTFGPGTKVDIK
not listed: [5]
binds: all other assays above

B2: 13F04 monoclonal antibody to human L1CAM (antibody, V domains shown)
VH: QVQLQQPGAELVKPGASVKLSCKASGYIFISYWMHWVKQRPGQGLEWIGEINPRNGRTNYNEKFKSKATLTVDKSSSTAYMQLTSLTSEDSAVYYCARGGDYGGSFDYWGQGTTLTVSS
VL: DIVLTQSPASLAVSLGQRATISCRASESVDSYGNSFMHWYQQKPGQPPKLLIYRASNLESGIPARFSGSGSRTDFTLTVNPVEADDVATYYCQQSNEDPWTFGGGTKLEIK
binds: [1] | [2]

B3: 143G03 monoclonal antibody to human L1CAM (antibody, V domains shown)
VH: QVQLVQSGAEVKKPGSSVKVSCKASGYTFTNYYIHWVRQAPGQGLEWMGKIGPGSGSPYYQGMFKDRVTITADESTSTAYMELSSLRSEDTAVYYCARWLLPFDYWGQGTLVTVSS
VL: EIVLTQSPGTLSLSPGERATLSCRASSSVNYMHWYQQKPGQAPRLLIYATSILASGIPDRFSGSGSGTDYTLTISRLEPEDFAVYYCQQFSSDPLTFGGGTKVEIK
binds: [1] | [5] | [4]
